# Positions count from the first letter of the chain named.
# Columns and labels:
# [1] = tested on: T1, recombinant pladin (plasma anti-diabetic nucb2 peptide)
# T1 sequence: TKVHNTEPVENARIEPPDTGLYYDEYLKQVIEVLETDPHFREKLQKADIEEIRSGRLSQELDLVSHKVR
# [2] = tested on: T2, pladin mutant A4 (Lys28→Ala)
# T2 sequence: T1 sequence with K28A
# [3] = tested on: T3, pladin mutant A5 (Lys13→Ala)
# T3 sequence: T1 sequence with R13A
# [4] = tested on: T4, acetylated rPladin
# T4 sequence: T1 sequence
# [5] = molecular target: T5, recombinant nesfatin-1 (UniProt P81117)
# T5 sequence: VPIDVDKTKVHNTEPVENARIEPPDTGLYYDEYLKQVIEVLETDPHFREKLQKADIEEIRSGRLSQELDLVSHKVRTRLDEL
# plasmin, sequence (P00747 20-580): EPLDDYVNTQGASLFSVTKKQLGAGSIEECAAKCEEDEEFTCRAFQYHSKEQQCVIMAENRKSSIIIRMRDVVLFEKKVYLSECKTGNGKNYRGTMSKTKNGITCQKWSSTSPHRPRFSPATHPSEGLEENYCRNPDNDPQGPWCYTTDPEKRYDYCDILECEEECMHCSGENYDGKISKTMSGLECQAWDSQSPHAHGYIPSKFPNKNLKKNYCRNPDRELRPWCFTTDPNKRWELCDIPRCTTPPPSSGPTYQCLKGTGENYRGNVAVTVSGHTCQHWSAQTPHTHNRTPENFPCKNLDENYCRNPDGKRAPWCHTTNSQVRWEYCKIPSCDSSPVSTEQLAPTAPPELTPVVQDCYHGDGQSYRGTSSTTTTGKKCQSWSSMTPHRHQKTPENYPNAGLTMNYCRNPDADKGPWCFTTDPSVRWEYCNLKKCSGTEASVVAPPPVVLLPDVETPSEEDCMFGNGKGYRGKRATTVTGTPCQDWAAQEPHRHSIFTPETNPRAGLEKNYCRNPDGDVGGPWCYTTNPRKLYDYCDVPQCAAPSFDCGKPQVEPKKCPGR
# plasmin, sequence (P00747 581-810): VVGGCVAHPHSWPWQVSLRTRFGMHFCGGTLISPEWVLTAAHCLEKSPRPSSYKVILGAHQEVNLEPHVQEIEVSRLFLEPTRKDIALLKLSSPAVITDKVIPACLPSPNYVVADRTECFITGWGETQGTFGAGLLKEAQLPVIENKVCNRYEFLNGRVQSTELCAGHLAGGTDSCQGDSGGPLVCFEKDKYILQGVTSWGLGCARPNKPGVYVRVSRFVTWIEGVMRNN
substance,measurement,setting,value
plasmin,degradation on incubation with plasmin in vitro,[1],"when rPladin was incubated with plasmin, it was rapidly degraded"
same,plasmin proteolysis in vitro,[2],resistant to plasmin proteolysis
same,plasmin proteolysis in vitro,[3],resistant to plasmin proteolysis
same,plasmin proteolysis in vitro,[4],resistant to plasmin proteolysis
same,digestion by plasmin in vitro,[5],Nesfatin-1 was completely digested by plasmin within 2 hours

# — patent US20100235935
